The results in this text go back to paper PMC6053526, “Arabidopsis WRKY50 and TGA Transcription Factors Synergistically Activate Expression of PR1”.

Series [1] concerns the target T1, GST-AtWRKY50-C (Arabidopsis thaliana, UniProt Q8VWQ5 86-173). The experiment in a line: EMSA; as wild type D; 5x buffer (3 uL in 14 uL): 20% glycerol, 5 mM MgCl2, 2.5 mM EDTA, 2.5 mM DTT, 250 mM NaCl, 50 mM Tris-HCl pH 7.5, 0.25 mg/ml poly(dI-dC); 0.5 ug protein; 10 min RT, then 60 min on ice with probe; gel at 4 C. The following applies: protein: recombinant; tags: GST (N-term); label: 32P; 5' overhang 3 nt (GGG) both ends.

The target in series [2] is T2, TGA2-His (Arabidopsis thaliana, UniProt P43273 1-330).
T2 sequence: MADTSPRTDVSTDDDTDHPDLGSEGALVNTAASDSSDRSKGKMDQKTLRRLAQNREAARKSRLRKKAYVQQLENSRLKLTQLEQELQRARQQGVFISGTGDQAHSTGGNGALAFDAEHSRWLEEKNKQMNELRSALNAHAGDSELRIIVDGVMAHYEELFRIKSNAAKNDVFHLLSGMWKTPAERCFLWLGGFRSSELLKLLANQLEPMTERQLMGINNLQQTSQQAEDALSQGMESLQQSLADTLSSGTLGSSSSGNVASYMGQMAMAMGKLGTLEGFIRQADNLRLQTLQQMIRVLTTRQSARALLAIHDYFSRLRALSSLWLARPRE
The experiment in a line: EMSA; shift increased by full-length AtWRKY50; 5x buffer (3 uL in 14 uL): 20% glycerol, 5 mM MgCl2, 2.5 mM EDTA, 2.5 mM DTT, 250 mM NaCl, 50 mM Tris-HCl pH 7.5, 0.25 mg/ml poly(dI-dC); 0.5 ug protein; 10 min RT, then 60 min on ice with probe; gel at 4 C. To be noted: protein: recombinant; tags: His; chain copies: 2; label: 32P; blunt.

Series [3] concerns the target T1, GST-AtWRKY50-C. The experiment in a line: EMSA; 5x buffer (3 uL in 14 uL): 20% glycerol, 5 mM MgCl2, 2.5 mM EDTA, 2.5 mM DTT, 250 mM NaCl, 50 mM Tris-HCl pH 7.5, 0.25 mg/ml poly(dI-dC); 0.5 ug protein; 10 min RT, then 60 min on ice with probe; gel at 4 C. To be noted: protein: recombinant, tags: GST (N-term), label: 32P.
For series [4], the target named is T2, TGA2-His. Described as above. The following applies: protein: recombinant; tags: His; chain copies: 2; label: 32P; blunt.
For series [5], the target named is T1, GST-AtWRKY50-C. The experiment in a line: EMSA; enhanced vs fragment A; 5x buffer (3 uL in 14 uL): 20% glycerol, 5 mM MgCl2, 2.5 mM EDTA, 2.5 mM DTT, 250 mM NaCl, 50 mM Tris-HCl pH 7.5, 0.25 mg/ml poly(dI-dC); 0.5 ug protein; 10 min RT, then 60 min on ice with probe; gel at 4 C. To be noted: protein: recombinant; tags: GST (N-term); label: 32P; 5' overhang 3 nt (GGG) both ends.

T1 sequence (Q8VWQ5 86-173): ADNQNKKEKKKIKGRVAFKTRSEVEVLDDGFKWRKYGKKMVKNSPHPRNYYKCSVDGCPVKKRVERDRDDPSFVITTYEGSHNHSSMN

B1: Dm2 (dsDNA)
DNA 1: GGGGATGTGGCGGCATATATTCCCCAGGACTTTTC
DNA 2: GGGGAAAAGTCCTGGGGAATATATGCCGCCACATC
Turning to B1, the binding result in the series with GST-AtWRKY50-C [1] is listed as “binds”.

B2: fragment B (dsDNA)
DNA 1: TTTCTCTACGTCACTATTTTACTTACGTCATA
DNA 2: TATGACGTAAGTAAAATAGTGACGTAGAGAAA
In the case of B2, the binding result with TGA2-His [2] is given as “binds”.

B3: fragment D (dsDNA)
DNA 1: GATGTGGCGGCATATATTCTTCAGGACTTTTC
DNA 2: GAAAAGTCCTGAAGAATATATGCCGCCACATC
Take B3: in the series with GST-AtWRKY50-C [3] (blunt), the binding result is recorded as “binds”.

B4: Am2 (dsDNA)
DNA 1: GGGGGTGATCTATTGACTGCCTCTCTACGTCACTA
DNA 2: GGGTAGTGACGTAGAGAGGCAGTCAATAGATCACC
For B4, in the series with GST-AtWRKY50-C [3] (5' overhang 3 nt (GGG) both ends), the binding result is “no binding”.

B5: fragment A (dsDNA)
DNA 1: GGTGATCTATTGACTGTTTCTCTACGTCACTA
DNA 2: TAGTGACGTAGAGAAACAGTCAATAGATCACC
On to B5, for which the binding result with TGA2-His [4] is “no binding”; with GST-AtWRKY50-C [3] (blunt), “binds”.

B6: Am1 (dsDNA)
DNA 1: GGGGGTGATCTATTGACTTTTCTCTACGTCACTAT
DNA 2: GGGATAGTGACGTAGAGAAAAGTCAATAGATCACC
With B6, the binding result with GST-AtWRKY50-C [5] is reported as “binds”.

B7: fragment C (dsDNA)
DNA 1: TTTTACTTACGTCATAGATGTGGCGGCATATA
DNA 2: TATATGCCGCCACATCTATGACGTAAGTAAAA
Consider B7, for which, in the series with TGA2-His [2], the binding result is listed as “binds”.
